To fix the notation:
B1: scFv 23 (scFv)
scFv: DIVMTQTPLSLSVSPGEPASISCKASQSLLHSNGNTYLYWFRQKPGQSPQRLIYLVSNRDAGVPDRFSGSGSGTDFTLRISRVEADDSGIYYCGQGKQDPITFGEGTHLEIKGGSSRSSSSGGGGSGGGGELTLQESGPGLVKPSQTLSLTCVVSGGSVTTSDYWNWLRQRPGRGLEYMGYWKGRTEYNPAFQGRISITADTAKNQFSLQLNSVTADDTAIYYCAHWGSGNLDYWGPGTLVTVSSESPSPPNLTSGQAGQHHHHHHGAYPYDVPDYAS
notes: Canine scFv (VL-linker-VH); also called P3-37
B2: scFv 16 (scFv)
scFv: QSVLTQPTSVSGSLGQRVTISCTGSSSNVGYGNYVGWYQQLPGTGPRTLIYGSHYRPSGVPDRFSGSSSGSSATLTISGLQAEDEADYYCSSYDSTLSGYVFGSGTQLTILGGGSSRSSSSGGGGSGGGGEVQLVESGGDLVKPGGSLRLSCVGSGFTLSSYWMSWVRQAPGKGLQWIAEISGSGNTIYYGDAVKGRFTISRDNAKNTLYLQMNSLRDEDTAVYYCATEYYWNIDNWGQGTLVTVSSESPFPPNLTSGQAGQHHHHHHGAYPYDVPDYAS
notes: Canine scFv (VL-linker-VH); also called P3-33; P4-01
B3: scFv 31 (scFv)
scFv: QSALTQPSSVSVSLGQTATISCSGESLTKYYVQWFQQKAGQAPVLVIYRDTERPSGIPDRFSGSSSGNTHTLTISGARAEDEADYYCESMDGREAYVFGSGTQLTVLGGGSSRSSSSGGGGSGGGGEVQLVESGGDLVKPGGSLRLSCVASGFTFSSYWMSWVRQAPGKGLQWIADISDSGSSTDYADAVKGRFTISRDNAKNTLYLQMNSLRAEDTAMYYCARGLGMDYWGHGTSLFVSSASTTAPSVTSGQAGQHHHHHHGAYPYDVPDYAS
notes: Canine scFv (VL-linker-VH); also called P4-09
B4: scFv 17 (scFv)
scFv: QPVLTQPPSVSAALGQRVTISCTGSKTNIGSGYDVQWYQQLPGKSPKTIIYGNSNRPSGVPARFSGSKSGSIATLTITGIQAEDEADYYCQSFDDNVDGYVFGSGTQLTILGGGSSRSSSSGGGGSGGGGEVPLVESGGDLVKPGGSLRLSCVASGFTFSSYGMSWVRQAPGKGLQWVAYINGGGSSTSYADAVRGRFTISRDNAENTLYLQMNSLRADDTAVYYCSNYYGIYWDSDYWGQGTLVTVSSESPSPPNLTSGQAGQHHHHHHGAYPYDVPDYAS
notes: Canine scFv (VL-linker-VH); also called P4-05A; P4-05B
B5: scFv 32 (scFv)
scFv: QSVLTQPASVSVSLGQTATISCSGESLSKYYAQWFQQKAGQAPVLVIYKDTERPSGIPDRFSGSSSGNTHTLTITGIQAADEADYYCQSYDDNLDGYVFGSGTQLTVLGGGSSRSSSSGGGGSGGGGEVQLVESGGDLVKPGGSLRLSCVGSGFTFSSYWMSWVRQAPGKGLQWIADISDSGSSTDYADAVKGRFTISRDNAKNTLYLQMNSLRAEDTAMYYCARGLGMDYWGHGTSLFVSSASTTAPSVTSGQAGQHHHHHHGAYPYDVPDYAS
notes: Canine scFv (VL-linker-VH); also called P4-11
B6: scFv 27 (scFv)
scFv: B5 scFv with S2P, A8P, A80E, A83G, Y86H, Q88H, D92E
notes: Canine scFv (VL-linker-VH); also called P3-18
B7: scFv 30 (scFv)
scFv: B5 scFv with A32T, T75S, I77A, A80E, L94V
notes: Canine scFv (VL-linker-VH); also called P4-02
B8: scFv 2 (scFv)
scFv: SYVLTQSPSLSGSLGQKVTISCTGSRSNLGGNYVGWYQQVPGMAPRNVIYANDFRPSRIPARFSASKSGTSATLTISGLQAEDEADYFCSSWDDDLGSHVFGSGTQLTILGGGSSRSSSSGGGGSGGGGEEQLVEFGGDLVKPGGSLRLSCVASGFSFSSYDMSWVRQAPGKGLQWVASTNFDGSRTYYTDAVEGRFTISRDNARNTVYLQMNSLRAEDTAVYYCARGMGSWGASTFGYWGQGTLVTVSSASTTAPSVTSGQAGQHHHHHHGAYPYDVPDYAS
notes: Canine scFv (VL-linker-VH); also called scFv_02; P3-21
B9: scFv 26 (scFv)
scFv: SSVLTQPPSVSVSLGQTATISCSGESLSKYYTQWFQQKAGQAPILVIYKDTERPSGIPDRFSGSSSGNTHTLTISGARAEDEADYYCESLVDSDAYMFGSGTQLTVLGGGSSRSSSSGGGGSGGGGEVQLVETGGDLVKPGGSLRLSCVGSGFTFSSYWMSWVRQAPGKGLQWIADISDSGSSTDYADAVKGRFTISRDNAKNTLYLQMNSLRAEDTAMYYCARGLGMDYWGHGTSLFVSSASTTAPSVTSGQAGQHHHHHHGAYPYDVPDYAS
notes: Canine scFv (VL-linker-VH); also called P3-03
B10: scFv 19 (scFv)
scFv: QAVLTQPASVSGPLGQRVTISCSGSTNNIGIVGAAWYQQFPGKAPKLLVYSDGSRPSGVPDRFSGSNSGNSATLTISGLQAEDEADYYCQSVDATHGTILFGGGTQLTVLGGGSSRSSSSGGGGSGGGGEVQLVETGGDLVKPAGSLRLSCAASGFPFSGYSMTWVRQAPEKGLQLVAGINSDGSHTYYTDDVKGRFTVSRDNTKYILYLQMNSLRVEDTAIYYCGSHSWGNFHYWGQGTLVTVSSESPSPPNLTSGQAGQHHHHHHGAYPYDVPDYAS
notes: Canine scFv (VL-linker-VH); also called P3-35
B11: scFv 18 (scFv)
scFv: QSALTQTASVSGSLGQKVTISCTGSRSNIGANYVGWYQQVPGIGPRTVIFGYNYRPSGVPDRFSSSKSGNSATLTISGLQAEDEAEYYCSTWDSSLNAYVFGSGTQLTVLGGGSSRSSSSGGGGSGGGGEVPLVESGGDLVKPGGSLRLSCVASGFTLSNYGMSWVRQSPGKGLQWVAAIRSGGNTYYADAVKGRFTISRDNAKNTLYLQMNSLRAEDTAVYYCASQWGDWGHFEYWGQGTLVTVSSASTTAPSVTSGQAGQHHHHHHGAYPYDVPDYAS
notes: Canine scFv (VL-linker-VH); also called P4-12
B12: scFv 3 (scFv)
scFv: QSVLNQPPSVSGALGQTVTISCSGSHTNIGSGFDVQWYQQLPGKSPQTLVYANINRPSGVPARFSGSKSGSTATLTITGVQAEDEADYYCQSYDDNFDGHVFGSGTQLTVLGGGSSRSSSSGGGGSGGGGEVQLVQSGGDLVKPGGSLRLSCVASGFTFSNYTMSWVRQAPGQGLQWVAYINYDGSITYYAEAVKGRFTVSRDNAKNTLYLQMNSLRAEDTAVYFCVKETFMIPTEWGQGTLITVSSASTTAPSVTSGQAGQHHHHHHGAYPYDVPDYAS
notes: Canine scFv (VL-linker-VH); also called scFv_03; P3-05
B13: scFv 20 (scFv)
scFv: QSVLNQPPSVSVSLGQTATISCSGESLSKYYAQWFQQKAGQVPVLVIYKDTERPSGIPDRFSGSSSGNTHTLTISGARAEDEADYYCESEVSPDTIVFGGGTHLTVLGGGSSRSSSSGGGGSGGGGEVQLVESGGDLVKPGGSLRLSCVASGFTFSSYAMSWVRQAPGEGLQWVAYINSAGSTTYYADAVKGRFTISRDNARNTVYLQMNSLRAEDTAVYYCGRYYYGLDYWGPGTSVFVSSESPSPPNLTSGQAGQHHHHHHGAYPYDVPDYAS
notes: Canine scFv (VL-linker-VH); also called P3-12
B14: scFv 28 (scFv)
scFv: QSALTQPSSVSVSLGQTATISCSGESLNKYYVQWFQQKAGQVPILVIYRDTERPSGIPDRFSGSSSGNTHTLTITGTRAEDEADYYCESLVNDNTYVFGSGTQLTVLGGGSSRSSSSGGGGSGGGGEVQLVETGGDLVKPGGSLRLSCVGSGFTFSSYWMSWVRQAPGKGLQWIADISDSGSSTDYADAVKGRFTISRDNAKNTLYLQMNSLRAEDTAMYYCARGLGMDYWGHGTSLFVSSASTTAPSVTSGQAGQHHHHHHGAYPYDVPDYAS
notes: Canine scFv (VL-linker-VH); also called P3-30
B15: scFv 29 (scFv)
scFv: QSVLNQPPSVSVSLGQTATISCSGESLNKYYTQWFQQKAGQAPVLVIYKDTERPSGIPDRFSGSSSGNTHTLTISGARAEDEADYYCESVDSTDTYVFGSGTQLTILGGGSSRSSSSGGGGSGGGGEVHLVESGGDLVKPGGSLRLSCVGSGFTFSSYWMSWVRQAPGKGLQWIADISDSGSSTDYADAVKGRFTISRDNAKNTLYLQMNSLRAEDTAMYYCARGLGMDYWGHGTSLFVSSASTTAPSVTSGQAGQHHHHHHGAYPYDVPDYAS
notes: Canine scFv (VL-linker-VH); also called P3-51
B16: scFv 22 (scFv)
scFv: QPVLTQPPSVSGSLGQRVTISCTGSSSNVGYGDYVGWYQQLPGTSPRTLIYSSSSRPSGVPDRFSGSRSGSTATLTISGLQAEDEADYHCSSYDTSLNGFVFGSGTQLTILGGGSSRSSSSGGGGSGGGGELTLQESGPGLVKPAQTLSLTCTVSGDSVTSSHFWHWIRQRPGRGLEWMGYWSDITIYSPTFQGRISITVDTARNQFSLHLNSVTTEDSAVYFCARYNGYVDYLDVWGQGTLITVSSASTTAPSVTSGQAGQHHHHHHGAYPYDVPDYAS
notes: Canine scFv (VL-linker-VH); also called P3-09; P3-11
B17: scFv 21 (scFv)
scFv: QPVLTQPPSVSVSLGQTATISCSGESLSKYYAQWFQQKAGQAPVLVIYKDTERPSGIPDRFSGSSSGNTHTLTISGARAEDEADYYCESAVSSDTAVFGSGTQLTVLGGGSSRSSSSGGGGSGGGGEVQLVESGGDMVKPGGSLRLSCVASGFTFSSFWMYWVRQAPGKGLQWVGGINSGGSITSYADAVKGRFTISRDNARNTLYLQMDSLRDEDTAVYYCAKPDIYGSFDHWGQGTLVTVSSESPSPPNLTSGQAGQHHHHHHGAYPYDVPDYAS
notes: Canine scFv (VL-linker-VH); also called P3-04; P3-34
B18: scFv 25 (scFv)
scFv: DIVMTQTPLSLSVSPGETASISCKASQSLLHSNGNTYLNWFRQKPGQSPQVLIYQVSNRDTGVPDRFSGSGSGTDFTLRISRVEADDAGVYYCGQGIQYPPTFGAGTKVELKGGSSRSSSSGGGGSGGGGEEQLVEFGGDLVKPGGSLRLSCVASGFTFSSLSMNWIRQAPGKGLQWVSQISPDGTITGYTDAVKGRFTISRDNAKNTLYLQMNSLRDEDTAIYYCAKSRYTDTYPFDYWGPGTLVTVSSESPSPPNLTSGQAGQHHHHHHGAYPYDVPDYAS
notes: Canine scFv (VL-linker-VH); also called P3-40

The source of these data is patent publication US20240358834A1 (University of Pennsylvania, published 2024).

Substitutions are numbered along the chain they refer to.

This experiment concerns the target T1, human CD19 protein with a biotinylated AviTag (Acrobiosystems) (human, UniProt P15391 20-291, biotinylated AviTag).
T1 construct: Captured on streptavidin-coated microplate wells; also called biotinylated-AviTag-CD19; hCD19; not shown: AviTag
T1 sequence (looked up): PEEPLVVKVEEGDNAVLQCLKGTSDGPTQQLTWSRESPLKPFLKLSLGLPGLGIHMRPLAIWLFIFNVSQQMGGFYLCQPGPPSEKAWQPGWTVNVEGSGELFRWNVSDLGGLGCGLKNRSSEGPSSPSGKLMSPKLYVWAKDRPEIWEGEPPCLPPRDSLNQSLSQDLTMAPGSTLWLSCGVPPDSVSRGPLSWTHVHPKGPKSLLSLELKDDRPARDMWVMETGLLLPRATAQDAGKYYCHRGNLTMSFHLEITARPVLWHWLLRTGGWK
Briefly: phage ELISA, biotinylated AviTag CD19 on streptavidin wells; signal ratio to FMC63 standard. The source says: To identify unique human CD19-binding monoclonal scFv from the panned libraries, individual phage antibody clones were expanded, assessed for binding to CD19 by ELISA, and subjected to nucleotide sequencing to identify those clones that were unique. A total of 84 scFvs were randomly selected from the panned libraries (70 from P3 and 14 from P4).
For orientation: ELISA stands for enzyme-linked immunosorbent assay.
On to B1, for which the “ELISA hCD19 (ratio FMC63)” value was 0.36 ratio to FMC63.
The figure for B2 is 0.41 ratio to FMC63.
The figure for B3 is 0.35 ratio to FMC63; for B4 it is 0.66 ratio to FMC63; for B5 it is 0.2 ratio to FMC63.
B6: the “ELISA hCD19 (ratio FMC63)” value was 0.35 ratio to FMC63.
The figure for B7 is 0.22 ratio to FMC63.
The figure for B8 is 0.49 ratio to FMC63; for B9 it is 0.65 ratio to FMC63.
For the molecule B10, the “ELISA hCD19 (ratio FMC63)” value is 0.26 ratio to FMC63.
Under B11 stands 0.27 ratio to FMC63; under B12, 0.32 ratio to FMC63.
The figure for B13 is 0.47 ratio to FMC63; for B14 it is 0.33 ratio to FMC63.
The figure for B15 is 0.83 ratio to FMC63; for B16 it is 0.21 ratio to FMC63; for B17 it is 0.71 ratio to FMC63.
B18: the “ELISA hCD19 (ratio FMC63)” value was 0.15 ratio to FMC63.
